Patent publication US20060281078, “Human fast-1 gene” (published 2006)
Changes are numbered by the printed parent chain.

Columns and labels:
[1] = target: T1, hFAST-1 (Homo sapiens) (UniProt O75593); assay: cell_activity; settings: MvLu1 cells; TGF-beta dependent luciferase activation
T1 sequence: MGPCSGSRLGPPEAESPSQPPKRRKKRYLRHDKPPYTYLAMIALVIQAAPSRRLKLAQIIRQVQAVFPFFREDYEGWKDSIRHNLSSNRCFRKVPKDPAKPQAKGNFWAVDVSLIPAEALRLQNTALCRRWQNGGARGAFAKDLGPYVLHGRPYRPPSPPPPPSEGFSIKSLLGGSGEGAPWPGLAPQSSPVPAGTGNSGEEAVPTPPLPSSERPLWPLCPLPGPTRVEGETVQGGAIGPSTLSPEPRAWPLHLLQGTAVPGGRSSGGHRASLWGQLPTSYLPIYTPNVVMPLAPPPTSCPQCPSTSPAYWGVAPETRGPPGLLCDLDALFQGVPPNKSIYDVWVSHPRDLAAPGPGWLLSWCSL

[2] = target: T2, hFAST-1 full length (FAST-FL) (Homo sapiens, UniProt O75593 SEQ:1-365); assay: EMSA; 1 ug GST fusion; settings: tags: GST N-terminal fusion (pGEX2TK); label: 32P
T2 sequence: T1 sequence
Protocol: (§1) Derivation of clones and EMSA were performed as described in Example 7. Mock selected clones were used for comparison (“C” lanes). The positions of free probe and hFAST-1 bound probe (“shift”) are indicated. FIG. 4B provides a sequence summary of clones that bound to hFAST-1. The sequences of the relevant segment of 17 hFAST-1-binding clones were determined and the fractions of clones containing the nucleotides at the indicated positions relative to the consensus are shown. […] Wild-type (FBE) or mutant (FBE*) oligonucleotides were incubated with 0.5-2.0 μg of GST fusion proteins containing full-length hFAST-1 (FAST-FL) or only its forkhead domain (FAST-FH). GST fusion proteins containing the MH1 or MH2 domains of Smad2 (S-N and S-C, respectively; Zawel et al., 1998) were used as controls. The FBE* oligonucleotide contained the sequence TCTGTATC in place of the consensus TGTGTATT but was otherwise identical to FBE. […] EMSA was performed with (+) or without (−) 1 μg of GST fusion protein containing full length FAST-1 (“FAST-FL”). The sequence of the 50 bp ARE oligonucleotide differed by only one bp from ARE*.
(§2) Sixty bp probes corresponding to single clones were generated for EMSA by colony PCR using the following ³²P-labeled primers: 5′-[…]-3′ (SEQ ID NO:14) and 5′-[…]-3′ (SEQ ID NO:15). […]

[3] = target: T2, hFAST-1 full length (FAST-FL); assay: EMSA; single base substitution in FBE; settings: tags: GST N-terminal fusion (pGEX2TK); label: 32P
Protocol: as §1, §2

[4] = target: T2, hFAST-1 full length (FAST-FL); assay: EMSA; about 0.4 uM protein, 0.5 ng DNA; settings: tags: GST N-terminal fusion (pGEX2TK); label: 32P
Protocol: as §1, §2

[5] = target: Smad2 MH2 domain (S-C) (Homo sapiens, UniProt Q15796 SEQ:193-477); assay: EMSA; specificity control; settings: tags: GST fusion; label: 32P
Smad2 MH2 domain (S-C), sequence (Q15796 183-467): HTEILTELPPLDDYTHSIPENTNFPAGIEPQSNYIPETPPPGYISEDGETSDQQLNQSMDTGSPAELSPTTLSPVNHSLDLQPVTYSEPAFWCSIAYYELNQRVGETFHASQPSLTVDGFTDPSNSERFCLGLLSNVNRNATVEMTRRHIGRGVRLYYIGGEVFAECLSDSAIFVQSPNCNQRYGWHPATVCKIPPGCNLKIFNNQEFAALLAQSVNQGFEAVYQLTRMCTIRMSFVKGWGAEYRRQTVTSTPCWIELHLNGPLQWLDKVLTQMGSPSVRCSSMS
Protocol: as §1, §2

[6] = target: Smad2 MH1 domain (S-N) (Homo sapiens, UniProt Q15796 Q15796:1-182); assay: EMSA; specificity control; settings: tags: GST fusion; label: 32P
Smad2 MH1 domain (S-N), sequence (Q15796 1-182, one chain of several): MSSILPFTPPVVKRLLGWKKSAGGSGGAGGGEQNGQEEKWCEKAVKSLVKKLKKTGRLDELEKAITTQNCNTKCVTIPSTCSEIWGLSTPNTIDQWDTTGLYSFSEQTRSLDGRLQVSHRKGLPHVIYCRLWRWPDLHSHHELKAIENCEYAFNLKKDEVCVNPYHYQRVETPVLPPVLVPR
Protocol: as §1, §2

[7] = target: T2, hFAST-1 full length (FAST-FL); assay: EMSA; two consensus positions altered; settings: tags: GST N-terminal fusion (pGEX2TK); label: 32P
Protocol: as §1, §2

Molecule: AR3-lux reporter (three copies of Mix.2 ARE)
- activity [1]: > 30 fold

B1: ARE (Mix.2) (dsDNA)
DNA 1: TATCTGCTGCCCTAAAATGTGTATTCCATGGAAATGTCTGCCCTTCTCTCCGTAC
DNA 2: GTACGGAGAGAAGGGCAGACATTTCCATGGAATACACATTTTAGGGCAGCAGATA
- binding result [2]: binds

B2: ARE mutant (dsDNA)
DNA 1: B1 DNA 1 with G19C
DNA 2: B1 DNA 2 with C37G
- binding result [3]: no binding

B3: FBE (dsDNA)
DNA 1: CGGATTGTGTATTGGCTGTAC
DNA 2: GTACAGCCAATACACAATCCG
- binding result [4]: binds
- binding result [5]: no binding
- binding result [6]: no binding

B4: FBE* (dsDNA)
DNA 1: CGGATTCTGTATCGGCTGTAC
DNA 2: GTACAGCCGATACAGAATCCG
- binding result [7]: no binding
